{"source": "patent US20240269315A1", "about": "“DRUG CONJUGATE AND USE THEREOF” (priority 2021, published 2024)", "target": "T1, Trop2 (UniProt P09758 27-323, limits assumed)", "T1 sequence (looked up)": "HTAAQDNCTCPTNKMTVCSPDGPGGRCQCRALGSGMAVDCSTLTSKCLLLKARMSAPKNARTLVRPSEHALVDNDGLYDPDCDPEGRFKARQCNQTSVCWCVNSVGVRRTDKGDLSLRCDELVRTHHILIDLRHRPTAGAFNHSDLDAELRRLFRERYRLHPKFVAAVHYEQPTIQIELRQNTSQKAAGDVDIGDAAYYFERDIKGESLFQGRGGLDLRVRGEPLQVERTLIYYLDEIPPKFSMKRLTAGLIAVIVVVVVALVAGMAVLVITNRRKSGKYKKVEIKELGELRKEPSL", "assay": "cell-based or functional assay"}
{"binder": "ADC4 (antibody, human IgG1, kappa, V domains shown, CB07-Exatecan on cysteine thiols after TCEP reduction; positions not given; DAR (p) 4.2 per antibody) VH: QVQLQQSGSELKKPGASVKVSCKASGYTFTNYGMNWVKQAPGQGLKWMGWINTYTGEPTYTDDFKGRFAFSLDTSVSTAYLQISSLKADDTAVYFCARGGFGSSYWYFDVWGQGTLVTVSS VL: DIQLTQSPSSLSASVGDRVSITCKASQDVSIAVAWYQQKPGKAPKLLIYSASYRYTGVPDRFSGSGSGTDFTLTISSLQPEDFAVYYCQQHYITPLTFGAGTKVEIKR", "values": [{"measurement": "EC50 (ng/mL), growth inhibition of Trop2 positive MDA-MB-453 cells (CCK-8, 120 h)", "value": 640, "unit": "ng/mL"}, {"measurement": "EC50 (ng/mL), growth inhibition of Trop2 positive MDA-MB-468 cells (CCK-8, 120 h)", "value": 158, "unit": "ng/mL"}, {"measurement": "EC50 (ng/mL), growth inhibition of Trop2 positive MX-1 cells (CCK-8, 120 h)", "value": 233, "unit": "ng/mL"}]}
